# Measurements taken from article PMC12862363, “AURKB-driven dissolution of CIZ1–RNA assemblies from the inactive X chromosome in mitosis” (Nucleic Acids Research, 2026).
# Legend:
# C179DDD (Homo sapiens) = assay: EMSA; conditions: 0.66 nM RNA; yeast tRNA 0.1 mg/ml; 10 mM Tris-HCl pH 7, 30 mM NaCl, 2.5 mM MgCl2, 0.1% IGEPAL CA-630, 0.1 mg/ml yeast tRNA, 1.5% RNaseOUT, 0.2 mM EDTA, 0.2 mM DTT, 30 C 20 min; 0.8% agarose/TBE …
# C179Δtail (Homo sapiens) = assay: EMSA; conditions: 0.66 nM RNA; yeast tRNA 0.1 mg/ml; 10 mM Tris-HCl pH 7, 30 mM NaCl, 2.5 mM MgCl2, 0.1% IGEPAL CA-630, 0.1 mg/ml yeast tRNA, 1.5% RNaseOUT, 0.2 mM EDTA, 0.2 mM DTT, 30 C 20 min; 0.8% agarose/TBE …
substance,measurement,setting,value
Xist repeat E RNA probe,binding signal (% probe shifted at 5 µM protein),C179DDD (Homo sapiens),54
same,binding signal (% probe shifted at 5 µM protein),C179Δtail (Homo sapiens),2
